Test results published in patent US20160046944, “APTAMER TO IL-17 AND USE THEREOF” (THE UNIVERSITY OF TOKYO, published 2016).
Positions count from the first letter of the chain named.

T1: IL-17 (Homo sapiens, UniProt Q16552 Q16552:24-155)
T1 sequence: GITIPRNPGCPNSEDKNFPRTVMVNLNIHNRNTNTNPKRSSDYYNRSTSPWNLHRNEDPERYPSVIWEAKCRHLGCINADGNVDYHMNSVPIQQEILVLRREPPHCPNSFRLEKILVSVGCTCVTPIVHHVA

T2: IL-17 (IL-17A) (Homo sapiens, UniProt Q16552 Q16552:24-155)
T2 sequence: T1 sequence

B1: aptamer No. 1 (mixed)
RNA: GGGUAGCCGGAGGAGUCAGUAAUCGGUACCC
modifications: LNA (L), 2'-F (F), PS (S), mc methylcytosine as marked; SEQ ID NO:1 [LNA at 1-3,29-31 (29-31 methylcytosine); 2'-F at 4,7,8,16,17,20,23,24,27; PS at 6,9]
B2: aptamer No. 6 (mixed)
mixed: B1 RNA with U16T, U20T
modifications: 2'-OMe (M), 2'-F (F), PS (S) as marked; uppercase DNA; (NI) printed, likely (M) [1,2,3,4,5,6,7,8,10,13,14,17,18,21,22,23,24,25,26,27]
B3: aptamer No. 15 (mixed)
mixed: B1 RNA with U16T, U20T
modifications: 2'-OMe (M), 2'-F (F) as marked; uppercase DNA [2'-OMe: 1-4,7,8,10,13,14,21,23-26,28; 2'-F: 6,11,17,18,27]
B4: aptamer No. 14 (mixed)
mixed: B1 RNA with U16T, U20T
modifications: 2'-OMe (M), 2'-F (F) as marked; uppercase DNA [1,2,3,4,6,7,8,10,11,13,14,17,18,21,22,23,24,25,26,27,28]
B5: aptamer No. 10 (mixed)
mixed: B1 RNA with U16T, U20T
modifications: 2'-OMe (M), 2'-F (F), PS (S) as marked; uppercase DNA [1,2,3,4,5,6,7,8,10,11,13,14,17,18,21,23,24,25,26,27]
B6: aptamer No. 8 (mixed)
mixed: B1 RNA with U16T, U20T
modifications: 2'-OMe (M), 2'-F (F), PS (S) as marked; uppercase DNA [1,2,3,4,6,7,8,10,11,13,14,17,18,23,24,25,26,27,28]
B7: aptamer No. 11 (mixed)
mixed: B1 RNA with U16T, U20T
modifications: 2'-OMe (M), 2'-F (F), PS (S) as marked; uppercase DNA [1,2,3,4,6,7,8,10,11,13,14,17,18,21,23,24,25,26,27,28]
B8: aptamer No. 9 (mixed)
mixed: B1 RNA with U16T, U20T
modifications: 2'-OMe (M), 2'-F (F), PS (S) as marked; uppercase DNA [1,2,3,4,6,7,8,10,11,13,14,17,18,21,22,23,24,25,26,27,28]
B9: aptamer No. 13 (mixed)
mixed: B1 RNA with U16T, U20T
modifications: 2'-OMe (M), 2'-F (F) as marked; uppercase DNA; (N) printed, likely (M) [1,2,3,4,7,8,10,11,13,14,17,18,21,23,24,25,26,27,28]
B10: aptamer No. 7 (mixed)
RNA: B1 RNA
modifications: 2'-OMe (M), 2'-F (F), PS (S) as marked; uppercase DNA [1,2,3,4,6,7,8,10,11,13,14,16,17,18,20,23,24,25,26,27,28]
B11: aptamer No. 12 (mixed)
mixed: B1 RNA with U16T, U20T
modifications: 2'-OMe (M), 2'-F (F) as marked; uppercase DNA [1,2,3,4,7,8,10,11,13,14,17,18,21,22,23,24,25,26,27,28]
B12: aptamer No. 16 (mixed)
mixed: GGGGUAGCCGGAGGAGTCAGTAAUCGGUACCCC
modifications: 2'-OMe (M), 2'-F (F), PS (S) as marked; uppercase DNA [2'-OMe: 1-5,8,9,11,14,15,22-27,29; 2'-F: 12,18,19,28; PS: 7]
B13: aptamer No. 21 (mixed)
mixed: B1 RNA with U16T, U20T, U27T
modifications: 2'-OMe (M), 2'-F (F), PS (S) as marked; uppercase DNA [2'-OMe: 1-4,7,8,10,13,14,23-26,28-31; 2'-F: 17; PS: 6]
B14: aptamer No. 22 (mixed)
mixed: B1 RNA with U16T, U20T, U27T
modifications: 2'-OMe (M), 2'-F (F) as marked; uppercase DNA [2'-OMe: 1-4,7,8,10,13,14,23-26,28-31; 2'-F: 17]
B15: aptamer No. 56 (mixed)
mixed: B1 RNA with U16T, U20T
modifications: g(M)g(M)g(M)u(M)Ag(S)c(M)c(M)Gg(M)a(F)gg(M)a(M)g(S)Tc(F)a(F)g(S)Ta(M)a(M)u(M)c(M)g(M)g(M)u(F)a(M)CCC
B16: aptamer No. 63 (mixed)
mixed: B1 RNA with U16T, U20T
modifications: g(M)g(M)g(M)u(M)a(M)g(S)c(M)c(M)Gg(M)a(F)gg(M)a(M)g(S)Tc(F)a(F)g(S)Ta(M)a(M)u(M)c(M)g(M)g(M)u(F)a(M)c(M)c(M)c(M)
B17: aptamer No. 94 (mixed)
RNA: B1 RNA
modifications: g(M)g(M)g(M)u(M)a(M)g(S)c(M)c(M)Gg(M)a(M)gg(M)a(M)g(S)u(F)c(F)a(F)g(S)u(F)aau(M)c(M)g(M)g(M)u(F)a(M)c(M)c(M)c(M)
B18: aptamer No. 87 (mixed)
mixed: B1 RNA with U16T, U20T, A21G
modifications: g(M)g(M)g(M)u(M)a(M)g(S)c(M)c(M)Gg(M)a(M)gg(M)a(M)g(S)Tc(M)a(F)g(S)Tga(M)u(M)c(M)g(M)g(M)u(M)a(M)c(M)c(M)c(M)
B19: aptamer No. 53 (mixed)
mixed: B1 RNA with U16T, U20T
modifications: g(M)g(M)g(M)u(M)Ag(S)c(M)c(M)Gg(M)a(F)gg(M)a(M)gTc(F)a(F)g(S)Ta(M)a(M)u(M)c(M)g(M)g(M)u(F)a(M)CCC
B20: aptamer No. 69 (mixed)
RNA: B1 RNA
modifications: g(M)g(M)g(M)u(M)a(M)g(S)c(M)c(M)Gg(M)a(F)gg(M)a(M)gu(F)c(F)a(F)gu(F)a(M)a(M)u(M)c(M)g(M)g(M)u(F)a(M)c(M)c(M)c(M)
B21: aptamer No. 68 (mixed)
RNA: B1 RNA
modifications: g(M)g(M)g(M)u(M)a(M)g(S)c(M)c(M)Gg(M)a(F)gg(M)a(M)g(S)u(F)c(F)a(F)g(S)u(F)a(M)a(M)u(M)c(M)g(M)g(M)u(F)Ac(M)c(M)c(M)
B22: aptamer No. 73 (mixed)
RNA: B1 RNA
modifications: g(M)g(M)g(M)u(M)a(M)g(S)c(M)c(M)Gg(M)a(F)gg(M)a(M)g(S)u(F)c(F)a(F)g(S)u(F)a(M)a(M)u(M)c(M)g(M)g(M)u(M)a(M)c(M)c(M)c(M)
B23: aptamer No. 85 (mixed)
RNA: B1 RNA
modifications: g(M)g(M)g(M)u(M)a(M)g(S)c(M)c(M)Gg(M)a(M)gg(M)a(M)g(S)u(F)c(F)a(F)g(S)u(F)a(M)a(M)u(M)c(M)g(M)g(M)u(F)a(M)c(M)c(M)c(M)

target: T1, IL-17; assay: SPR; IL-17R-Fc on chip; conditions: chain copies: 2
Experimental: Whether aptamers shown by aptamer Nos. 1-49 inhibit the binding of IL-17 and IL-17 receptor was evaluated by the surface plasmon resonance method.
For the measurement, BIAcore2000 manufactured by BIAcore was used. […] As an analyte, IL-17 (100 or 150 nM) and an aptamer (50 or 100 nM) shown by aptamer No. 1-49 were mixed, maintained for 15 min and after that the mixture was flown.

Binder | binding signal
B1 | 28.6 % IL-17/IL-17R binding remaining
B2 | 25.3 % IL-17/IL-17R binding remaining
B3 | 14.2 % IL-17/IL-17R binding remaining
B4 | 16.5 % IL-17/IL-17R binding remaining
B5 | 25.2 % IL-17/IL-17R binding remaining
B6 | 15.3 % IL-17/IL-17R binding remaining
B7 | 16.8 % IL-17/IL-17R binding remaining
B8 | 8.94 % IL-17/IL-17R binding remaining
B9 | 13.8 % IL-17/IL-17R binding remaining
B10 | 18.4 % IL-17/IL-17R binding remaining
B11 | 24.4 % IL-17/IL-17R binding remaining
B12 | 27.9 % IL-17/IL-17R binding remaining

target: T1, IL-17; assay: cell_activity; NIH3T3 IL-6 release; conditions: chain copies: 2
Experimental: First, human IL-17 and the aptamer produced in Example 1-1 were pre-incubated at 37° C. for 30 min, and added to NIH3T3 cell (ATCC, CRL1658) together with mouse TNFα (2 ng/mL). Then, after incubation for 24 hr, the culture supernatant was collected, and the amount of IL-6 was measured by BD Cytometric Bead Array (BD Biosciences). The IL-17 inhibitory action of each aptamer was determined from the amount of IL-6. For comparison with the aptamer of the present invention, a conventionally-known aptamer (aptamer No. 50) against IL-17 was used.

Binder | IC50 [nM]
B1 | 1.17
B2 | 0.77
B3 | 0.63
B4 | 0.5
B5 | 0.63
B13 | 0.39
B6 | 0.49
B14 | 1.66
B7 | 0.34
B8 | 0.64
B9 | 0.4
B10 | 0.3
B11 | 0.52
B12 | 0.25

target: T2, IL-17 (IL-17A); assay: cell_activity; IL-6 release, NIH3T3; conditions: chain copies: 2
Experimental: First, human IL-17 and the aptamer produced in Example 1-2 were pre-incubated at 37° C. for 30 min, and added to NIH3T3 cell (ATCC, CRL1658) together with mouse TNFα (2 ng/mL). Then, after incubation for 24 hr, the culture supernatant was collected, and the production amount of IL-6 was measured by ELISA method described below. The IL-17 inhibitory action of each aptamer was determined from the production amount of IL-6. For comparison with the aptamer of the present invention, a conventionally-known aptamer (aptamer No. 50) against IL-17 was used.
ELISA method for verifying IL-17 inhibitory action of aptamer: A microtiter plate for ELISA was coated with rat anti-mouse IL-6 antibody (BD Biosciences, 2 μg/mL; 100 μL/well) diluted with PBS, and incubated at 4° C. overnight. The next day, the microtiter plate was washed 3 times with PBS/0.05% Tween 20, and applied blocking with PBS/1% BSA (200 μL/well) at room temperature for 2 hr. Then, the plate was washed 3 times with PBS/0.05% Tween 20. Recombinant mouse IL-6 (BD Biosciences; 100 μL/well) serially diluted with PBS/1% BSA/0.05% Tween 20 or culture supernatants (100 μL/well) were added to the plate. After incubation at room temperature for 2 hr, the plate was washed 3 times with PBS/0.05% Tween 20. Then, 100 μL/well of biotin conjugated rat anti-mouse IL-6 antibody (BD Biosciences) was added to the plate at final dilution of 1/500, and the mixture was reacted at room temperature for 1 hr. After washing 3 times with PBS/0.05% Tween 20, 100 μL/well of alkaline phosphatase conjugated streptavidin was added at final dilution of 1/1000. After 30 min at room temperature, the plate was again washed 4 times with PBS/0.05% Tween 20, and a substrate (1-Step PNPP; Thermo Fisher Scientific Inc; 100 μL/well) was added. After 15 min, aqueous sodium hydroxide solution (2N: 50 μL/well) was added to stop the reaction, and the plate was read on a microtiter reader (Bio-Rad) by using a 405 nm filter.

Binder | IC50 [nM]
B15 | 0.52
B16 | 0.81
B17 | 0.29
B18 | 3.23
B19 | 1.67
B20 | 1.73
B21 | 2.4
B22 | 3.46
B23 | 0.96
